Assay results from US12534534 (F STAR BETA, dated 2026).

Columns and labels:
hCD137-mFc-Avi [1] = molecular target: T1, hCD137-mFc-Avi (human, UniProt Q07011 24-186); test: SPR, antigens immobilised on CM5 chip, mAb^2 at 1 µM and 1 nM, binding level at end of association
T1 construct: dimer; also called human CD137-mFc-Avi; human CD137-mFc
Method: CD137 belongs to the tumour necrosis factor receptor superfamily (TNFRSF) of cytokine receptors (Moran et al., 2013). To analyse the specificity of the anti-CD137 Fab binding site of the five mAb² molecules, binding of the mAb² to human CD137 and five closely-related human TNFRSF members (TNFRSF1A, TNFRSF1B, GITR, NGFR and CD40) was tested using SPR.
(§1) Flow cell 1 was run as a blank immobilisation. The five FS20-22-49AA/FS30 mAb² were diluted to 1 μM and 1 nM in 1×HBS-EP buffer (GE Healthcare, product code BR100188), allowed to flow over the chip for 3 min and then allowed to dissociate for 4 minutes. A 30-second injection of 10 mM glycine pH 1.5 was used for regeneration. […] Binding levels were determined at the end of the association phase and compared.

[2] = molecular target: human CD137 on DO11.10-hCD137 cells (human, UniProt Q07011 24-255); test: cell-based or functional assay
hCD137-mFc-Avi [3] = molecular target: T1, hCD137-mFc-Avi; test: cell-based, 100 nM hCD137-mFc-Avi with 200 nM antibody, competitor human CD137L on DO11.10 cells, GMFI normalised to G1/11D4 = 0 and G1/MOR7480.1 = 100; mean of n=2
Method: The cells were washed once in PBS and 100 μl/well of secondary antibody (anti-mouse Fc-488 antibody, Jackson Immuno Research, 115-546-008) diluted 1:1000 in PBS containing 2% BSA was then added and incubated for 30 mins at 4° C. in the dark. The cells were washed once with PBS and resuspended in 100 μl of PBS containing DAPI (Biotium, 40043) at 1 μg/ml. The cells were analysed using a Canto II flow cytometer (BD Bioscience). Dead cells were excluded and the fluorescence in the FITC channel (488 nm/530/30) was measured. […] The data was analysed using a one-way ANOVA test and Tukey's multiple comparisons test using GraphPad Prism.

hCD137-mFc-Avi [4] = molecular target: T1, hCD137-mFc-Avi; test: ELISA, hCD137-mFc-Avi coated, 100 nM antibody, competitor CD137L-His; normalised to G1/11D4 = 0 and G1/MOR7480.1 = 100; mean of n=2
Method: The following day, plates were washed with PBST (PBS+0.05% Tween20™) and blocked with PBS+1% BSA (Sigma, A3059-500G) for 1 hour at room temperature with agitation. After blocking, the plates were washed again with PBST. A 100 nM dilution of each test antibody was prepared in PBS+1% BSA and added to the CD137-coated plates and incubated for 1 hour at room temperature with agitation. […] The plates were then washed with PBST and then incubated with anti-his secondary antibody (R&D Systems, MAB050H) at a 1 in 1000 dilution in PBS for 1 hour at room temperature with agitation. The plates were then washed with PBST and incubated with TMB detection reagent (Thermo Fisher Scientific, 002023) until the positive control wells turned blue and then the reaction was stopped with the addition of 2N H_2SO_4. Plates were read at 450 nm using the plate reader with Gen5 Software, BioTek. Absorbance values of 630 nm were subtracted from those of 450 nm (Correction). The subtracted absorbance values were plotted vs the log concentration of antibody and the resulting curves were fitted using the log (inhibitor) vs response equation in GraphPad Prism.

GITR-hFc-Avi = molecular target: T2, GITR-hFc-Avi (human, UniProt Q9Y5U5 26-161); test: SPR, antigen immobilised on CM5 chip
T2 construct: in-house produced; not shown: hFc and Avi part
T2 sequence: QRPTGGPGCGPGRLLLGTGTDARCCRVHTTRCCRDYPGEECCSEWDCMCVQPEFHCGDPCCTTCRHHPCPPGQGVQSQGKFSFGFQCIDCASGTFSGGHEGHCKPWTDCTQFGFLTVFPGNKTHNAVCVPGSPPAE
Method: as §1
(§2) Specificity was tested against the same five human TNFRSF members closely-related to CD137 (TNFRSF1A, TNFRSF1B, GITR, NGFR and CD40) plus an additional closely-related TNFRSF member, human DR6 (DR6-Fc; R&D Systems, 144-DR-100), using SPR as described in Example 3.1.

CD40-mFc = molecular target: T3, CD40-mFc (human, UniProt P25942 21-193); test: SPR, antigen immobilised on CM5 chip
T3 construct: in-house produced; not shown: mFc part
Method: as §1, §2

TNFRSF1A-Fc = molecular target: T4, TNFRSF1A-Fc (human, UniProt P19438 30-211, limits assumed); test: SPR, antigen immobilised on CM5 chip
T4 construct: bought; also called TNFRSF1A (R&D Systems, 372-RI-050/CF); not shown: Fc part of the bought fusion
T4 sequence (looked up): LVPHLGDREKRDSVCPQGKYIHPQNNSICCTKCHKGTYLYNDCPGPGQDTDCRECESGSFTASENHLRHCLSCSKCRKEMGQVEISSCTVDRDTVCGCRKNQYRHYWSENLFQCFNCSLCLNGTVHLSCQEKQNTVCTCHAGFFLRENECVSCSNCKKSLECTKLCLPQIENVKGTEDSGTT
Method: as §1, §2

NGFR-Fc = molecular target: T5, NGFR-Fc (human, UniProt P08138 29-250); test: SPR, antigen immobilised on CM5 chip
T5 construct: bought; also called NGFR (R&D Systems, 367-NR-050/CF); not shown: Fc part of the bought fusion
T5 sequence (looked up): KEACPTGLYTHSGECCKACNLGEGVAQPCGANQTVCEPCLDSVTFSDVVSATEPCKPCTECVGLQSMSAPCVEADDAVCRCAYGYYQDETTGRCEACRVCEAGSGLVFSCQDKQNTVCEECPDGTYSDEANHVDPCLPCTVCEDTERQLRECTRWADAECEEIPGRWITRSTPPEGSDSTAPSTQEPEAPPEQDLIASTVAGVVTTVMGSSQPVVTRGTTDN
Method: as §1, §2

TNFRSF1B-Fc = molecular target: T6, TNFRSF1B-Fc (human, UniProt P20333 23-257); test: SPR, antigen immobilised on CM5 chip
T6 construct: bought; also called TNFRSF1B (R&D Systems, 726-R2-050); not shown: Fc part of the bought fusion
T6 sequence (looked up): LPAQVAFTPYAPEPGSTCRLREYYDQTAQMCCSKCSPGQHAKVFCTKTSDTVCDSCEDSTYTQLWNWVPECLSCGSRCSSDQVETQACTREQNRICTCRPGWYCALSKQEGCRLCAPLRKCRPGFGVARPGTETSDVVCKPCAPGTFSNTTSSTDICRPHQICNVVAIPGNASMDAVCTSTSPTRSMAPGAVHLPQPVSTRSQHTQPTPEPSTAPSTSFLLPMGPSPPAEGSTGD
Method: as §1, §2

Row | Binder | fold specificity for CD137 over TNFRSF1A, TNFRSF1B, GITR, NGFR and CD40 (hCD137-mFc-Avi [1]) [fold] | DO11.10-hCD137 T cell activation assay EC50 (nM), crosslinked [2] [nM] | also measured
1 | FS20-22-49AA/FS30-5 (bispecific antibody, human IgG1, kappa, L234A L235A, V domains shown, also called FS30-5 in mAb^2 format) VH: EVQLLESGGGLVQPGGSLRLNCAASGFTFSSYAMSWVRQAPGKGLEWVSAISGSGGSTYYADSVKGRFTISRDNSKNTLYLQMNSLRAEDTAVYYCARSYDKYWGSSMYSGMDYWGQGTLVTVSS VL: EIVLTQSPGTLSLSPGERATLSCRASQSVSSSYLAWYQQKPGQAPRLLIYGASSRATGIPDRFSGSGSGTDFTLTISRLEPEDFAVYYCQQYYSYYPVTFGQGTKVEIKR | ~1000 | 4.8 | 
2 | FS20-22-49AA/FS30-35 (bispecific antibody, human IgG1, kappa, L234A L235A, V domains shown, also called FS30-35 in mAb^2 format) VH: EVQLLESGGGLVQPGGSLRLSCAASGFTFSAYNIHWVRQAPGKGLEWVSDISPYGGATNYADSVKGRFTISRDNSKNTLYLQMNSLRAEDTAVYYCARNLYELSAYSYGMDYWGQGTLVTVSS VL: EIVLTQSPGTLSLSPGERATLSCRASQSVSSSYLAWYQQKPGQAPRLLIYGASSRATGIPDRFSGSGSGTDFTLTISRLEPEDFAVYYCQQYYYSSPITFGQGTKVEIKR | ~1000 | 5.5 | 
3 | FS20-22-49AA/FS30-16 (bispecific antibody, human IgG1, kappa, L234A L235A, V domains shown, also called FS30-16 in mAb^2 format) VH: EVQLLESGGGLVQPGGSLRLSCAASGFTFSNYAMHWVRQAPGKGLEWVSTIDPTDGATNYADSVKGRFTISRDNSKNTLYLQMNSLRAEDTAVYYCARSKYYTYMQYVALDYWGQGTLVTVSS VL: EIVLTQSPGTLSLSPGERATLSCRASQSVSSSYLAWYQQKPGQAPRLLIYGASSRATGIPDRFSGSGSGTDFTLTISRLEPEDFAVYYCQQGSRFFPITFGQGTKVEIKR | ~1000 |  | 
4 | FS20-22-49AA/4420 (bispecific antibody, human IgG1, kappa, L234A L235A, V domains shown, anti-OX40 Fcab FS20-22-49AA with the Fab of anti-FITC antibody 4420; IgG1 LALA; also called negative control mAb^2) VH: EVKLDETGGGLVQPGRPMKLSCVASGFTFSDYWMNWVRQSPEKGLEWVAQIRNKPYNYETYYSDSVKGRFTISRDDSKSSVYLQMNNLRVEDMGIYYCTGSYYGMDYWGQGTSVTVSS VL: DVVMTQTPLSLPVSLGDQASISCRSSQSLVHSNGNTYLRWYLQKPGQSPKVLIYKVSNRFSGVPDRFSGSGSGTDFTLKISRVEAEDLGVYFCSQSTHVPWTFGGGTKLEIKR |  |  | % CD137 ligand blocking activity (hCD137-mFc-Avi [3]): 2%; % CD137 ligand blocking activity (hCD137-mFc-Avi [4]): -0.3%
5 | FS20-22-49AA/FS30-10 (bispecific antibody, human IgG1, kappa, L234A L235A, V domains shown, also called FS30-10 in mAb^2 format) VH: EVQLLESGGGLVQPGGSLRLSCAASGFTFSSYDMSWVRQAPGKGLEWVSDIDPTGSKTDYADSVKGRFTISRDNSKNTLYLQMNSLRAEDTAVYYCARDLMVYGFDYWGQGTLVTVSS VL: EIVLTQSPGTLSLSPGERATLSCRASQSVSSSYLAWYQQKPGQAPRLLIYGASSRATGIPDRFSGSGSGTDFTLTISRLEPEDFAVYYCQQSYSYPVTFGQGTKVEIKR | ~1000 | 10.2 | 
6 | FS20-22-49AA/FS30-15 (bispecific antibody, human IgG1, kappa, L234A L235A, V domains shown, also called FS30-15 in mAb^2 format) VH: EVQLLESGGGLVQPGGSLRLSCAASGFTFSGSGMSWVRQAPGKGLEWVSIIYSTNGDTDYADSVKGRFTISRDNSKNTLYLQMNSLRAEDTAVYYCARDFYDIANYYAFDYWGQGTLVTVSS VL: EIVLTQSPGTLSLSPGERATLSCRASQSVSSSYLAWYQQKPGQAPRLLIYGASSRATGIPDRFSGSGSGTDFTLTISRLEPEDFAVYYCQQAYYDPITFGQGTKVEIKR |  |  | binding result (GITR-hFc-Avi): binds; binding result (CD40-mFc): binds; binding result (TNFRSF1A-Fc): binds; binding result (NGFR-Fc): binds; binding result (TNFRSF1B-Fc): binds
